According to patent US20120322150A1 (CARNEGIE INSTITUTION OF WASHINGTON, published 2012):

Legend:
MBP-BSU1 = biological target: T1, MBP-BSU1 (Arabidopsis, UniProt Q9LR78 1-793); assay: overlay blot with MBP-BSU1 after incubation of GST-BSK1 with GST-BRI1-K
T1 construct: Recombinant fusion used as probe in overlay (far-western) blots and in phosphatase assays; also called BSU1 from E. coli
Method: Total protein extracts obtained from Arabidopsis plants (F1) expressing BSU1 -YFP or co-expressing BSU1-YFP and BSK1-myc were immunoprecipitated with anti-myc, and the immunoblot was probed with anti-GFP and anti-myc antibody. […] GST-BSK1 or GST-BSK1 S230A was incubated with GST-BRI1-K or GST for 2 hrs. […] In the presence of BR (+BR), BR binding to the extracellular domain of BRI1 induces dissociation of BKI1 and association and inter-activation between BRI1 and BAKI. Activated BRI1 then phosphorylates BSK1, which in turn dissociates from the receptor complex and interacts with and presumably activate BSU1. BSU1 inactivates BIN2 by dephosphorylating its pTyr200, allowing accumulation of unphosphorylated BZR1/2, likely with help of a phosphatase that is yet to be identified. Unphosphorylated BZR1/2 accumulate in the nucleus and alter the expression of BR-target genes, leading to cellular and developmental responses. While individual representative protein is shown for each function, in Arabidopsis most of these components have about 2 to 5 homologous proteins (paralogs) that can contribute to the same or similar signaling function.
To test interaction of BSU1 with BIN2 or bin2-1 in vitro, a gel blot separating GST, GST-BIN2, GSTbin2-1 was incubated with 20 μg MBP-BSU1 in 5% non-fat dry milk/PBS buffer and washed four times. The blot was then probed with a polyclonal anti-MBP antibody. […]

nYFP-BIN2 = biological target: T2, nYFP-BIN2 (Arabidopsis, UniProt Q39011 1-380); assay: BiFC in Arabidopsis seedlings, epidermal cells
T2 construct: BiFC construct in transgenic Arabidopsis, crossed to BZR1-cYFP plants; not shown: N-terminal half of YFP (nYFP)
T2 sequence (looked up): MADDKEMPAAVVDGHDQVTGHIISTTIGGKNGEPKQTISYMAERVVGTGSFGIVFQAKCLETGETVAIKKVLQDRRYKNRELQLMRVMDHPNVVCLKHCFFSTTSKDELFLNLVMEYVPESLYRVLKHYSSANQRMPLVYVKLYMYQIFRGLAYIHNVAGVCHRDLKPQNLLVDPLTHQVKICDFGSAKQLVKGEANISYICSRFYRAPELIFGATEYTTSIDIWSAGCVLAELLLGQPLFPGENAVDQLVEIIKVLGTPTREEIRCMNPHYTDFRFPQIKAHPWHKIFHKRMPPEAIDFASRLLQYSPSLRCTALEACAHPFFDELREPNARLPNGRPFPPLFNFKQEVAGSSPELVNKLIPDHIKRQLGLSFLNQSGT
Method: (§1) FIGS. 5A-5G show regulation of the BIN2 homolog, AtSK12 BSU1-mediated tyrosine dephosphorylation. […] Activation domain (AD) fused AtSKs were transformed into the cells containing DNA binding domain (BD) fused BZR1. Yeast clones were grown on Synthetic Dropout (SD) or SD-Histidine medium. […] Transgenic Arabidopsis plants expressing nYFP-BIN2, nYFP-AtSK12 and nYFP-AtSK12-cd (C-terminal 29 amino acid deletion) were crossed to BZR1-cYFP plants, respectively. The seedlings of F1 generation were grown in white light for 7 days and YFP signals of epidermal cells were observed. […] GST-AtSK12 was incubated with MBP-BZR1 and ³²P-γATP. CBB indicates Coomassie brilliant blue-stained gel. […] Homozygous plants expressing AtSK12-myc were treated with 0.25 MM BL for 30 min. Proteins immunoprecipitated by anti-myc antibodies were blotted onto nitrocellulose membrane and probed by anti-myc antibody. […] (h) BR induces pTyr dephosphorylation of AtSK12. Homozygous AtSK12-myc plants were pretreated with 10 μM MG132 and then treated with 0.25 μM BL (+BL) or mock solution (−BL). […]
(§2) Transformation by Agrobacterium infiltration, observations of subcellular localization and BiFC signal in tobacco or Arabidopsis were performed as described previously 5. Fluorescence of YFP was visualized by using a spinning-disk confocal microscope (Leica Microsystems, Heerbruag, Germany).

nYFP-AtSK12 = biological target: T3, nYFP-AtSK12 (Arabidopsis, UniProt P43289 1-409); assay: BiFC in Arabidopsis seedlings, epidermal cells
T3 construct: BiFC construct in transgenic Arabidopsis; not shown: N-terminal half of YFP (nYFP)
T3 sequence (looked up): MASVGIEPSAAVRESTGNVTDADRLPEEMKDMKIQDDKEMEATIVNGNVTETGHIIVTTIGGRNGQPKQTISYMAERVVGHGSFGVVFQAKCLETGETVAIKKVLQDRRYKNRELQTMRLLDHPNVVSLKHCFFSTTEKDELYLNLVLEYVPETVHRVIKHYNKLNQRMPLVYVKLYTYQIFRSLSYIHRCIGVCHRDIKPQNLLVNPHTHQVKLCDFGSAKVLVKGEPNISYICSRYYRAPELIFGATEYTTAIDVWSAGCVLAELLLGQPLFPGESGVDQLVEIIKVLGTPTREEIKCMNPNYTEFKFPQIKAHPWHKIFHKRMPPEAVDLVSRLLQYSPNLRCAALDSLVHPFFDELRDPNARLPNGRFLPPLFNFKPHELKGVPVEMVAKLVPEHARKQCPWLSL
Method: as §1, §2

T1 sequence (Q9LR78 whole entry, the tested form may be a part): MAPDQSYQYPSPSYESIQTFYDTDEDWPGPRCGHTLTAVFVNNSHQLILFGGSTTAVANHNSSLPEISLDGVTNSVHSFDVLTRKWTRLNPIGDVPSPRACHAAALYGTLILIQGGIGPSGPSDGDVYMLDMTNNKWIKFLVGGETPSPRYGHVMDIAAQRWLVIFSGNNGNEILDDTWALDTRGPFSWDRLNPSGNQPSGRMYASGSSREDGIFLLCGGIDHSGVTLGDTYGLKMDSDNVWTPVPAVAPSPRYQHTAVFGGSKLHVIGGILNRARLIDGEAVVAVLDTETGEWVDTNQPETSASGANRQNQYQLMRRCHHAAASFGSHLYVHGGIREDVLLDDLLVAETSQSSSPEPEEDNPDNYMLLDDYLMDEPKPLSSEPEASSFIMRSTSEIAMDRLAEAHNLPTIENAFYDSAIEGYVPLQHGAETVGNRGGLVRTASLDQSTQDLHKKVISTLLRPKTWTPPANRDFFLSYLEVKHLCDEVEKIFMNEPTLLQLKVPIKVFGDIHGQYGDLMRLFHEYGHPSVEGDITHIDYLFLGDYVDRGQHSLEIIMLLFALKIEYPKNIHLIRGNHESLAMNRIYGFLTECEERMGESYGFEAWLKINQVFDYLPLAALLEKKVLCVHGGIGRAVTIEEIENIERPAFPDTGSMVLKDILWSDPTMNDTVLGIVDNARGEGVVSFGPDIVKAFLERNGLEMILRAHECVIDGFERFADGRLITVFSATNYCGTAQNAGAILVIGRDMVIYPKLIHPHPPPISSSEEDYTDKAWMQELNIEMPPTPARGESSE

B1: GST-BSK1 phosphorylated by GST-BRI1-K (enzyme, Arabidopsis, UniProt Q944A7 1-512, looked up)
chain: MGCCQSLFSGDNPLGKDGVQPQPLSQNNHGGATTADNGGSGGASGVGGGGGGGGIPSFSEFSFADLKAATNNFSSDNIVSESGEKAPNLVYKGRLQNRRWIAVKKFTKMAWPEPKQFAEEAWGVGKLRHNRLANLIGYCCDGDERLLVAEFMPNDTLAKHLFHWENQTIEWAMRLRVGYYIAEALDYCSTEGRPLYHDLNAYRVLFDEDGDPRLSCFGLMKNSRDGKSYSTNLAYTPPEYLRNGRVTPESVTYSFGTVLLDLLSGKHIPPSHALDMIRGKNIILLMDSHLEGKFSTEEATVVVELASQCLQYEPRERPNTKDLVATLAPLQTKSDVPSYVMLGIKKQEEAPSTPQRPLSPLGEACSRMDLTAIHQILVMTHYRDDEGTNELSFQEWTQQMKDMLDARKRGDQSFREKDFKTAIDCYSQFIDVGTMVSPTVFGRRSLCYLLCDQPDAALRDAMQAQCVYPDWPTAFYMQSVALAKLNMNTDAADMLNEAAQLEEKRQRGGRGS
modifications: phosphorylated by BRI1 kinase domain in vitro; phospho-Ser230 as the site named
notes: GST-BSK1 incubated with GST-BRI1-K and 100 uM ATP for 2 hrs before SDS-PAGE; also called phosphorylated BSK1; not shown: GST (glutathione S-transferase) tag
binding result (MBP-BSU1): binds

B2: BZR1-cYFP (other, Arabidopsis, UniProt Q8S307 1-336, looked up)
chain: MTSDGATSTSAAAAAAAAAAARRKPSWRERENNRRRERRRRAVAAKIYTGLRAQGDYNLPKHCDNNEVLKALCVEAGWVVEEDGTTYRKGCKPLPGEIAGTSSRVTPYSSQNQSPLSSAFQSPIPSYQVSPSSSSFPSPSRGEPNNNMSSTFFPFLRNGGIPSSLPSLRISNSCPVTPPVSSPTSKNPKPLPNWESIAKQSMAIAKQSMASFNYPFYAVSAPASPTHRHQFHTPATIPECDESDSSTVDSGHWISFQKFAQQQPFSASMVPTSPTFNLVKPAPQQMSPNTAAFQEIGQSSEFKFENSQVKPWEGERIHDVGMEDLELTLGNGKARG
notes: BiFC construct in transgenic Arabidopsis; not shown: C-terminal half of YFP (cYFP)
binding result (nYFP-BIN2): binds | binding result (nYFP-AtSK12): binds
